The record followed here is patent publication US20170274062A1 (OURO FINO SAUDE ANIMAL LTDA, published 2017).

B1: Exomyc polyprotein 3, Rrp42-P216A-HSP-NrdF (other)
chain: MGSDNEIVAGIMRDHIINLLKEGKRIDDRGFEDYRPIEIEVGVIEKAEGSALVKLGSTQVLVGIKTSLGEPFPDTPNMGVMTTNVELVPLASPTFEPGPPDERAIELARVIDRGIRESKALNLEKMVIVPGKIVRVVFIDVHVLDHDGNLMDAIGIAAIAALLNARVPKVRYNEETGEVETLDETEPLPVEKIPVPVTFAKIGNILVVDPSLDEELVMDGKITITTDETGHISAVQKSEGGAFKLEEVMYAVETAFKKAEEIRKLILEAVEKAKQLEGQKKAVRKEEELETYNPKDEFNILNPGEISDVLLLDVTPLTLGIETLGGIATPLIPRNTTIPVTKSQIFSTAEDNQTEVTISVVQGERQLAADNKMLGRFNLSGIEAAPRGLPQIEVSFSIDVNGITTVSAKDKKTGKEQTITIKNTSTLSEEEINKMIQEAEENREADALKKDKIETTVRAEGLINQLEKSITDQGEKIDPKQKELLEKQIQELKDLLKEDKTDELKLKLDQIEAAAQSFAQATAQQANTSESDPKADDSNTIDAEIKQDGSGKQDEIKKFTFDLLYKLIELEKDYLYDLYSEVGLAESAIKFSIYNAGKFLQNLGYDSPFSKEETEIEPEIFSQLSARADENHDFFSGNGSSYVMALAEETEDEDWEF
notes: also called Rrp42-HSP-NrdF
B2: Exomyc polyprotein 2, Rrp41-P46-P97R1R2 (other)
chain: MAEKPEGLKLIDENGRRIDGRKKYELRPIKMEVGVLKNANGSAYIEWGKNKIIAAVYGPRELHPKHLQRPDRAILRVRYNMAPFSVEETKSPGPDRRSIEISKVIKGALEPALILEMFPRTAIDVFIEVLQADAGTRVAGITAASLALADAGIPMRDLVAACAAGKIEGEIVLDLNKEEDNYGEADVPVAIMPLKNDITLLQMDGYLTKDEFIEAVKLAIKGAKAVYQKQREALKEKYLKIAQEVEGSPKHKVSNDSIRIALTDPDNPRWISAQKDIISYVDETEAATSTITKNQDAQNNWLTQQANLSPAPKGFIIAPENGSGVGTAVNTIADKGIPIVAYDRLITGSDKYDWYVSFDNEKVGELQGLSLAAGLLGKEDGAFDSIDQMNEYLKSHMPQETISFYTIAGSQDDNNSQYFYNGAMKVLKELMKNSQNKIIDLSPEGENAVYVPGWNYGTAGQRIQSFLTINKDPAGGNKIKAVGSKPASIFKGFLAPNDGMAEQAITKLKLEGFDTQKIFVTGQDYNDKAKTFIKDGDQNMTIYKPDKVLGKVAVEVLRVLIAKKNKASRSEVENELKAKLPNISFKYDNQTYKVQGKNINTILVSPVIVTKANVDNPGAAKPEAAKPVAAKPETTKPVAAKPEAAKPEAAKPVAAKPEAAKPVAAKPEAAKPVAAKPEAAKPVAAKPEAAKPVATNTGFSLTNKPKEDYFPMTEGSSNQGKKSEGTPNQGKKAEGAPNQGKKAEGTPNQGKKAEGAPSQQSPTTE
notes: also called Rrp41-P46-97R1R2

Assay [1] has as its target T1, Exomyc polyprotein 1, Rrp4-P216B-P36-MHP271.
T1 construct: Expressed in E. coli BL21 (DE3) from pMRK-EXOMYC; also called Rrp4-P36-MHP271
Description: co-expression in E. coli, co-retention on 500 kDa MWCO tangential filtration, SDS-PAGE.

For assay [2], the target named is B1. Described as above.

B1: the binding result in assay [1] is listed as “binds”.

As for B2, the binding result in assay [1] and in assay [2] was “binds” throughout.
